This is an account of results in patent publication US20060084798.

The subject of the series is MOP7/human ARNT (transfected) (Mus musculus). The series is described as follows: cell_activity. Conditions: COS-1 luciferase; enhanced by hypoxia or CoCl2.

On to “HRE reporter (six HRE enhancer elements)”, for which the activity is 11.7 fold.
